According to patent publication US20140227270A1:

Biological target: Human CXCR7 (human) (UniProt P25106)
Test: competition FACS, 4 nM biotinylated SDF-1 on HEK-hCXCR7 cells

Sequence of Human CXCR7 (human) (P25106 whole entry): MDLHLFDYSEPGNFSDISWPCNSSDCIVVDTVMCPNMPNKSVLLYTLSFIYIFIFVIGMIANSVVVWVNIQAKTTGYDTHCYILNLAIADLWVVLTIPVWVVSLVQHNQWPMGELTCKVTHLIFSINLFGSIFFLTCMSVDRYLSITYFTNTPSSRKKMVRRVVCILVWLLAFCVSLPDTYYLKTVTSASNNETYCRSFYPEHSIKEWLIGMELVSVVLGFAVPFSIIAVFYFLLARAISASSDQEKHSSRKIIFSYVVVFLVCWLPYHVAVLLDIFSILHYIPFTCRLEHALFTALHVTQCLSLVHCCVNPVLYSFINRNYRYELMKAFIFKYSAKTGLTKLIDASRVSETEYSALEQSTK

Mab 8F11 (Biolegend) (antibody)
% competition relative to unlabelled SDF-1: > 95%
